Data on 8 molecules can be found in publication PMC10104300, “Conserved intramolecular networks in GDAP1 are closely connected to CMT-linked mutations and protein stability” (PLOS ONE, 2023).

Series [1] deals with wild-type GDAP1 (GDAP1Δ303–358) (human) (UniProt Q8TB36). Nature of the series: batch-mode SAXS; concentration range 1–4 mg/ml, P12 beamline EMBL/DESY.
Series [2] deals with the molecule itself. As to the kind of experiment: SEC-SAXS; variants in GDAP1Δ303–358; 100 μl at 1.7–36 mg/ml (maximum concentration for each variant) injected onto a BioSEC3-300 column, 25 mM HEPES pH 7.5, 300 mM NaCl, +15°C; top of the peak analysed.
Series [3] concerns the molecule itself. As to the kind of experiment: SEC-SAXS; Arg310 mutants in GDAP1Δ319–358, at lower concentration than all the other mutants; BioSEC3-300 column, 25 mM HEPES pH 7.5, 300 mM NaCl, +15°C; two peaks (dimer and monomer). A general note: SEC sorts molecules by how far they enter the pores of the column.

What is called stoichiometry N is the number of molecules, sites or subunits per partner or assembly. As to “wild-type GDAP1 (GDAP1Δ303–358) (from UniProt Q8TB36-1 1-302) (domain or fragment)”, the stoichiometry N in series [1] came to 2.

B1: GDAP1Δ303–358 R120Q (domain or fragment, human, UniProt Q8TB36-1 1-302, looked up)
chain: MAERQEEQRGSPPLRAEGKADAEVKLILYHWTHSFSSQKVRLVIAEKALKCEEHDVSLPLSEHNEPWFMRLNSTGEVPVLIHGENIICEATQIIDYLEQTFLDERTPRLMPDKESMYYPQVQHYRELLDSLPMDAYTHGCILHPELTVDSMIPAYATTRIRSQIGNTESELKKLAEENPDLQEAYIAKQKRLKSKLLDHDNVKYLKKILDELEKVLDQVETELQRRNEETPEEGQQPWLCGESFTLADVSLAVTLHRLKFLGFARRNWGNGKRPNLETYYERVLKRKTFNKVLGHVNNILIS
notes: human GDAP1 lacking residues 303-358 (GDAP1Δ303–358) with the CMT-linked mutation R120Q; CMT disease variant; source: E. coli BL21(DE3), autoinduction, purified (Ni-NTA, TEV cleavage, reverse Ni-NTA, SEC); not shown: His6, N-terminal, cleaved
As to B1, the “stoichiometry N” value in series [2] came to 2.

B2: GDAP1Δ303–358 R282H (domain or fragment, human, UniProt Q8TB36-1 1-302, looked up)
chain: MAERQEEQRGSPPLRAEGKADAEVKLILYHWTHSFSSQKVRLVIAEKALKCEEHDVSLPLSEHNEPWFMRLNSTGEVPVLIHGENIICEATQIIDYLEQTFLDERTPRLMPDKESMYYPRVQHYRELLDSLPMDAYTHGCILHPELTVDSMIPAYATTRIRSQIGNTESELKKLAEENPDLQEAYIAKQKRLKSKLLDHDNVKYLKKILDELEKVLDQVETELQRRNEETPEEGQQPWLCGESFTLADVSLAVTLHRLKFLGFARRNWGNGKRPNLETYYEHVLKRKTFNKVLGHVNNILIS
notes: human GDAP1 lacking residues 303-358 (GDAP1Δ303–358) with the CMT-linked mutation R282H; CMT disease variant; source: E. coli BL21(DE3), autoinduction, purified (Ni-NTA, TEV cleavage, reverse Ni-NTA, SEC); not shown: His6, N-terminal, cleaved
As to B2, the “stoichiometry N” value in series [2] was 2.

B3: GDAP1Δ303–358 A247V (domain or fragment, human, UniProt Q8TB36-1 1-302, looked up)
chain: MAERQEEQRGSPPLRAEGKADAEVKLILYHWTHSFSSQKVRLVIAEKALKCEEHDVSLPLSEHNEPWFMRLNSTGEVPVLIHGENIICEATQIIDYLEQTFLDERTPRLMPDKESMYYPRVQHYRELLDSLPMDAYTHGCILHPELTVDSMIPAYATTRIRSQIGNTESELKKLAEENPDLQEAYIAKQKRLKSKLLDHDNVKYLKKILDELEKVLDQVETELQRRNEETPEEGQQPWLCGESFTLVDVSLAVTLHRLKFLGFARRNWGNGKRPNLETYYERVLKRKTFNKVLGHVNNILIS
notes: human GDAP1 lacking residues 303-358 (GDAP1Δ303–358) with the CMT-linked mutation A247V; CMT disease variant; source: E. coli BL21(DE3), autoinduction, purified (Ni-NTA, TEV cleavage, reverse Ni-NTA, SEC); not shown: His6, N-terminal, cleaved
B3: the “stoichiometry N” value in series [2] was 2.

B4: GDAP1Δ303–358 H256R (domain or fragment, human, UniProt Q8TB36-1 1-302, looked up)
chain: MAERQEEQRGSPPLRAEGKADAEVKLILYHWTHSFSSQKVRLVIAEKALKCEEHDVSLPLSEHNEPWFMRLNSTGEVPVLIHGENIICEATQIIDYLEQTFLDERTPRLMPDKESMYYPRVQHYRELLDSLPMDAYTHGCILHPELTVDSMIPAYATTRIRSQIGNTESELKKLAEENPDLQEAYIAKQKRLKSKLLDHDNVKYLKKILDELEKVLDQVETELQRRNEETPEEGQQPWLCGESFTLADVSLAVTLRRLKFLGFARRNWGNGKRPNLETYYERVLKRKTFNKVLGHVNNILIS
notes: human GDAP1 lacking residues 303-358 (GDAP1Δ303–358) with the CMT-linked mutation H256R; CMT disease variant; source: E. coli BL21(DE3), autoinduction, purified (Ni-NTA, TEV cleavage, reverse Ni-NTA, SEC); not shown: His6, N-terminal, cleaved
Turning to B4, the “stoichiometry N” value in series [2] stood at 2.

B5: GDAP1Δ303–358 R161H (domain or fragment, human, UniProt Q8TB36-1 1-302, looked up)
chain: MAERQEEQRGSPPLRAEGKADAEVKLILYHWTHSFSSQKVRLVIAEKALKCEEHDVSLPLSEHNEPWFMRLNSTGEVPVLIHGENIICEATQIIDYLEQTFLDERTPRLMPDKESMYYPRVQHYRELLDSLPMDAYTHGCILHPELTVDSMIPAYATTRIHSQIGNTESELKKLAEENPDLQEAYIAKQKRLKSKLLDHDNVKYLKKILDELEKVLDQVETELQRRNEETPEEGQQPWLCGESFTLADVSLAVTLHRLKFLGFARRNWGNGKRPNLETYYERVLKRKTFNKVLGHVNNILIS
notes: human GDAP1 lacking residues 303-358 (GDAP1Δ303–358) with the CMT-linked mutation R161H; CMT disease variant; source: E. coli BL21(DE3), autoinduction, purified (Ni-NTA, TEV cleavage, reverse Ni-NTA, SEC); not shown: His6, N-terminal, cleaved
Consider B5, for which the “stoichiometry N” value in series [2] amounted to 2.

B6: GDAP1Δ319–358 R310Q (domain or fragment, human, UniProt Q8TB36-1 1-318, looked up)
chain: MAERQEEQRGSPPLRAEGKADAEVKLILYHWTHSFSSQKVRLVIAEKALKCEEHDVSLPLSEHNEPWFMRLNSTGEVPVLIHGENIICEATQIIDYLEQTFLDERTPRLMPDKESMYYPRVQHYRELLDSLPMDAYTHGCILHPELTVDSMIPAYATTRIRSQIGNTESELKKLAEENPDLQEAYIAKQKRLKSKLLDHDNVKYLKKILDELEKVLDQVETELQRRNEETPEEGQQPWLCGESFTLADVSLAVTLHRLKFLGFARRNWGNGKRPNLETYYERVLKRKTFNKVLGHVNNILISAVLPTAFQVAKKRAPK
notes: human GDAP1 lacking residues 319-358 (GDAP1Δ319–358) with the CMT-linked mutation R310Q; CMT disease variant; eluted as dimer (main peak) and monomer; source: E. coli BL21(DE3), autoinduction, purified (Ni-NTA, TEV cleavage, reverse Ni-NTA, SEC); not shown: His6, N-terminal, cleaved
With B6, the “stoichiometry N” value in series [3] amounted to 2.

B7: GDAP1Δ319–358 R310W (domain or fragment, human, UniProt Q8TB36-1 1-318, looked up)
chain: MAERQEEQRGSPPLRAEGKADAEVKLILYHWTHSFSSQKVRLVIAEKALKCEEHDVSLPLSEHNEPWFMRLNSTGEVPVLIHGENIICEATQIIDYLEQTFLDERTPRLMPDKESMYYPRVQHYRELLDSLPMDAYTHGCILHPELTVDSMIPAYATTRIRSQIGNTESELKKLAEENPDLQEAYIAKQKRLKSKLLDHDNVKYLKKILDELEKVLDQVETELQRRNEETPEEGQQPWLCGESFTLADVSLAVTLHRLKFLGFARRNWGNGKRPNLETYYERVLKRKTFNKVLGHVNNILISAVLPTAFWVAKKRAPK
notes: human GDAP1 lacking residues 319-358 (GDAP1Δ319–358) with the CMT-linked mutation R310W; CMT disease variant; eluted as monomer (highest peak) and dimer; source: E. coli BL21(DE3), autoinduction, purified (Ni-NTA, TEV cleavage, reverse Ni-NTA, SEC); not shown: His6, N-terminal, cleaved
For the molecule B7, the “stoichiometry N” value in series [3] stood at 2.
